Test results: article PMC3891622, “The Sphingolipid Receptor S1PR2 Is a Receptor for Nogo-A Repressing Synaptic Plasticity” (PLoS Biology, 2014)

T1: Fluorescently labeled recombinant Nogo-A-Δ20 (rat aa544-725) (rat, UniProt Q9JK11-1 544-725, fluorescent label (Amine Reactive Protein labeling kit RED, L001, Nano Temper technologies))
T1 construct: Nogo-A (Rtn4), rat, residues 544-725 (Nogo-A-Δ20 domain); not shown: T7 or HA (His-/T7- or His-/HA-tagged)
T1 sequence (looked up): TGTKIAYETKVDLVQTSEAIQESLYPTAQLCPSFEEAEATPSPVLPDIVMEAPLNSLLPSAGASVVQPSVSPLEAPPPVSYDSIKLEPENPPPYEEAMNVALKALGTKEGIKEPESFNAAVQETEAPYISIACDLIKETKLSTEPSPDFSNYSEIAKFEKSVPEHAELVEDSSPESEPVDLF

T2: Fluorescently labeled recombinant Nogo-A-Δ20 (rat aa544-725) (rat), Q9JK11
T2 chain: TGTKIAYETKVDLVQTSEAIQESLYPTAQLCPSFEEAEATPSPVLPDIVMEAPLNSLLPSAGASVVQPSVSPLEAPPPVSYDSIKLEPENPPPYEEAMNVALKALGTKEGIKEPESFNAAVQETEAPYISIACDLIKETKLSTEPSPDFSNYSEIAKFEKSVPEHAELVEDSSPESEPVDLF


Columns and labels:
[1] = molecular target: T1, Fluorescently labeled recombinant …; test: MST; Monolith NT.115; fluorescently labeled Nogo-A-Δ20 constant (~40 nM), peptides serially diluted; PBS with 0.025% Tween-20, pH 7.4; LED 60%, IR laser 20%; non-linear regression with Hill coefficient 1.0; conditions: both partners purified
[2] = molecular target: T2, Fluorescently labeled recombinant …; test: as above; conditions: remark: other sources report otherwise

Kd [1] [nM] | Kd [2] [nM] | Binder
~1700 |  | LSGHVTLSLTPVQW (Extracellular loop 1 of S1PR2; also called ECL1; source: synthetic peptide (JPT Peptide Technologies)) [S1PR2 extracellular loop 1 peptide]
 | 280 | NCLNQLEACSTVLPLYAKHYVL (here or on the partner: fluorescent label (Amine Reactive Protein labeling kit RED, L001, Nano Temper technologies)) [S1PR2 extracellular loop 2 peptide]
 | 350 | SILLLDSTCPVRACPVLYK (here or on the partner: fluorescent label (Amine Reactive Protein labeling kit RED, L001, Nano Temper technologies)) [S1PR2 extracellular loop 3 peptide]
~11000 |  | MGGLYSEYLNPEKVQEHYNYTKETLDMQETPSRK (Extracellular N-terminus of S1PR2; source: synthetic peptide (JPT Peptide Technologies)) [S1PR2 N-terminus peptide]
